Measured values: the supplement of paper PMC10126150
± gives the standard deviation of the averaged measurements.

Tested on: ATP
Test: switch fluorescence ratio, 500 uM ATP over buffer (Cy3 cluster intensity, sum of 5 cycles each) (fold (ratio)); higher = stronger signal-on switching upon ATP binding; sequences stand for … in TCGTCGGCAGCGTCAGATGTGTATAAGAGACAGTTTTTTTTTTTTTTTTTTTTTTTTT…TC
Conditions: aptamer strand: ATP DNA aptamer (quencher-CACCTGGGGGAGTATTGCGGAGGAAGG + anchor), 100 nM annealed; ATP concentration: 500 uM
Outline: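 Switching-strand clusters labelled with Cy3 on a modified Illumina MiSeq flow-cell were annealed to 100 nM quencher-labelled ATP aptamer, imaged in selection buffer, and re-imaged after 15 min with 500 uM ATP at 22 °C. This was done over five cycles with NaOH stripping and re-annealing in between. The fluorescence ratio is summed target-cycle over summed buffer-cycle Cy3 intensity per cluster, averaged per switch-domain sequence, excluding clusters outside 100-1000 RFU.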
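Also: ATP exposure 15 min at 22 °C before imaging.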

Sequence	switch fluorescence ratio
AAGGGGTTCG	1.05 ± 0.023
ACTTTATGTT	1.041 ± 0.0015
TTAGTATCGA	0.966 ± 0.029
CGGAGGGGCT	1.03 ± 0.015
AGGGGGATTT	0.999 ± 0.052
TGTAAAACTA	1.02 ± 0.028
AATTTGTCCG	0.992 ± 0.041
GTTTTTCTTC	0.9923 ± 0.0058
TCGGTTTTGC	0.982 ± 0.028
GGTTTAAAGG	0.996 ± 0.015
TCGTTGCGAG	0.9898 ± 0.0096
TATGGGGTGG	1.01 ± 0.015
CGGTTCGGCT	1.04 ± 0.047
TCGTAGATGT	1 ± 0.026
CGGAAAGACG	1.05 ± 0.014
TATCTAAAGT	1.01 ± 0.029
GGGAATTGGG	0.997 ± 0.018
TTAAAATTTT	1.06 ± 0.06
TTAAAGCGCG	1.04 ± 0.024
TAAAGTAGTT	1.01 ± 0.044
AGCTTCGTTC	1.014 ± 0.0052
GAAAGGCAGA	1.01 ± 0.01
CGGGTCAACT	0.963 ± 0.014
GGGATCTATA	0.9721 ± 0.0081
ATGATCTCGT	0.968 ± 0.032
TCCATGACGC	1.099 ± 0.0088

Sequence	switch fluorescence ratio
GGGGTAAAGG	1.04 ± 0.11
GGCTGCCGGG	1.02 ± 0.025
GGCTCGGGGG	1.03 ± 0.029
CGATTGATCA	1.004 ± 0.0075
CTAATTCGAG	0.9919 ± 0.0026
AGGAATATAC	1.11 ± 0.066
TTTCTCCGGT	1.53 ± 0.39
CGGTGAAGCC	0.984 ± 0.019
TGGGTACGCT	1.01 ± 0.022
AGCACAGGGG	0.985 ± 0.045
ATGAAGTGAA	1 ± 0.034
AAAAGTAGTT	1.01 ± 0.038
TTAAATTCGA	0.966 ± 0.036
GGCAGTTTGG	1.01 ± 0.023
AAAACGAATG	1.05 ± 0.065
AATAGAAGGA	0.9888 ± 0.0037
AGGCAAAAAT	1.008 ± 0.004
TTTATACTTT	1.06 ± 0.1
CCGTTTTTTG	1 ± 0.032
GGGCCTTTTT	0.9864 ± 0.006
TTAGGCCGGG	0.998 ± 0.041
GAGATCGAGG	1.03 ± 0.017
CTGTCGACTG	1.04 ± 0.017
CGTTTTTAGA	0.967 ± 0.031
ATGGAATTTG	0.98 ± 0.0098
CTCGAAGCG	1.04 ± 0.034

Sequence	switch fluorescence ratio
TATTTTAGTA	1.01 ± 0.03
AGCAAAGTGT	1.02 ± 0.071
GAATTATTGG	0.975 ± 0.022
TAACATGGCC	1 ± 0.022
AAATAATGAT	1 ± 0.021
GAGGTTGGAT	0.982 ± 0.016
GGGGTTGTGT	0.996 ± 0.026
TTGGATTTTT	0.992 ± 0.041
TAGCTTGTTG	1.02 ± 0.025
TCGTTAGAGG	0.9718 ± 0.0073
TCTAAAAGTG	0.9752 ± 0.0022
GGGTGGCACA	1 ± 0.0046
CGGGACTTTT	0.982 ± 0.044
CTGGCAACGA	1.06 ± 0.013
TATAAGTGAG	1.02 ± 0.037
CAATAGATGG	0.999 ± 0.016
TCAAAGTCCT	1.01 ± 0.02
AATGGGTCGT	0.9673 ± 0.0077
AGAAAAAGGC	1.02 ± 0.065
ATGGTCGCGC	0.993 ± 0.04
AAATTAATGT	1 ± 0.018
CATGTACTTT	1.08 ± 0.031
CATTCGGGGT	0.994 ± 0.029
ATCACAATCA	1.02 ± 0.023
CACGGGGGGC	1.02 ± 0.054
GGGGCTATGT	1.08 ± 0.14

Sequence	switch fluorescence ratio
AGTGGGGGAT	0.988 ± 0.028
GGGGGATGTA	0.948 ± 0.032
GTTCAGTGAG	0.995 ± 0.01
TTGGTATAGC	1.003 ± 0.01
CTGGCTAGGT	0.988 ± 0.057
AATAAATCTA	1.039 ± 0.0016
GAGTGGGTAG	1.03 ± 0.025
CATAGATCTG	1.01 ± 0.028
TCTCGGGATT	1 ± 0.013
CAAAGGGTTA	0.9906 ± 0.0086
CGTTTGTTCC	1.0348 ± 0.00023
TCTTCCGGTG	1.68 ± 0.045
TGTGTTTGTT	0.998 ± 0.017
CCGGGGTGTT	1.22 ± 0.3
ATAATTCGGC	0.984 ± 0.022
GCGGCTAGTC	1.012 ± 0.0064
CGGGCTGCGT	0.962 ± 0.028
GGTTTTAGTT	0.986 ± 0.03
TTTTGGCGCA	1.01 ± 0.0046
ATATTGGGGG	0.998 ± 0.025
TTGAGAGTCT	1.01 ± 0.18
TATTACGGCG	1.02 ± 0.03
TGCTTTGTGT	0.978 ± 0.025
GGGAGGCGGG	0.99 ± 0.019
TTCCGGGGCC	0.9978 ± 0.0032
GCATTATGGG	1.02 ± 0.034

Sequence	switch fluorescence ratio
AGGGGCAGTA	0.993 ± 0.032
AAATTAGCGG	0.987 ± 0.032
TGGGATAATG	1.012 ± 0.0042
GGGAGATAGC	1.06 ± 0.015
CTGCTCTGTG	0.968 ± 0.014
TCTTCCTAGA	1.031 ± 0.01
AAGAGGTAAA	0.972 ± 0.025
AAGGCCCTGA	0.994 ± 0.012
GAAGTAGCGA	1.05 ± 0.015
AGAAGTTTTA	1.01 ± 0.075
TTGGGCACTG	0.974 ± 0.013
CTGTGCGACA	1.06 ± 0.053
CATTACGTGC	0.996 ± 0.016
CCGATTTATA	1.013 ± 0.0052
GGCCCCCGGT	1.1 ± 0.068
GACAGGGATC	2.1 ± 1.6
GTTCGGCAGA	1 ± 0.032
TAAACGCTGG	0.999 ± 0.014
ATATGAGGGA	1.01 ± 0.026
ACTCGACCTT	1.21 ± 0.15
AGTTCCGTTG	1.028 ± 0.0097
GCTTTATGAA	1.02 ± 0.054
GATTGGGCTC	1.02 ± 0.036
TCGCGGCAAT	3.06 ± 2.3
GCTGGCACAC	1.04 ± 0.021
ATATGCAGGG	0.993 ± 0.00024

Sequence	switch fluorescence ratio
CATGGAGCGA	1.24 ± 0.064
GTTTTACGGA	1.003 ± 0.0065
TATCGCAATG	3.63 ± 0.32
GCGTTCCGTA	1.02 ± 0.039
GGTAAAGGAT	0.991 ± 0.039
GGGTCAACGA	1.03 ± 0.051
AGGGAGAAGT	0.9853 ± 0.002
AGTAAGCGGC	1.004 ± 0.0094
GGAGAAGGGT	0.9967 ± 0.0047
GAGTACCAGG	1.25 ± 0.017
ATTAAGGGGA	1.04 ± 0.049
GGATTAAAGG	1.03 ± 0.013
CCTGCGGGGA	1.31 ± 0.29
TGGGACTAGT	1.02 ± 0.059
TTTTCGGTTT	1 ± 0.051
TGATATTGTG	0.994 ± 0.024
CATTATGGGT	0.95 ± 0.013
TGTAATTACA	1.003 ± 0.0061
AAGCTGGGGG	0.969 ± 0.033
TTATTTATCG	0.987 ± 0.026
TTTATAGTGC	1.01 ± 0.027
CGCCGGAGGA	0.9697 ± 0.0067
GGTTTGGGG	1.03 ± 0.016
